According to publication PMC4273445 (eLife, 2014):
Several values for one entry are separate records, joined by “and”; a condition that tells them apart may be missing. Identical values can stand only once.

B8: CFH67, CCP domains 6 and 7 of complement factor H (domain or fragment)
chain: TLKPCDYPDIKHGGLYHENMRRPYFPVAVGKYYSYYCDEHFETPSGSYWDHIHCTQDGWSPAVPCLRKCYFPYLENGYNQNYGRKFVQGKSIDVACHPGYALPKAQTTVTCMENGWSPTPRCI
notes: source: prepared as previously described (Prosser et al., 2007)

Key:
[1] = biological target: fHbp V1.1, recombinant His-tagged (Neisseria meningitidis) (UniProt Q9JXV4); assay: SPR
[2] = biological target: T1, factor H binding protein (fHbp) V3.28, recombinant His-tagged (Neisseria meningitidis, UniProt E6MV22 20-274); assay: SPR
T1 chain: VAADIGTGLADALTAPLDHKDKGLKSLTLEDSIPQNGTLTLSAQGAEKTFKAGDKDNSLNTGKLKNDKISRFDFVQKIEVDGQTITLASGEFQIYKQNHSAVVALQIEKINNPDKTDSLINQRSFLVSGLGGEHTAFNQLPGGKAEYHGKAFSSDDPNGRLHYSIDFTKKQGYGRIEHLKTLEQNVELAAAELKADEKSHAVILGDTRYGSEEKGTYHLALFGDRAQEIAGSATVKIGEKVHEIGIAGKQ

[3] = biological target: factor H binding protein (fHbp) V3.28, recombinant His-tagged (Neisseria meningitidis), E6MV22; assay: MST
[4] = biological target: T1, factor H binding protein (fHbp) V3.28, …; assay: MST
[5] = biological target: factor H binding protein (fHbp) V3.28 (N. meningitidis), E6MV22; assay: SPR
[6] = biological target: T2, CFHR3_(12), the first two (N-terminal) CCP domains of complement factor H-related 3 (human, UniProt Q02985 19-330); assay: SPR; conditions: both partners purified
T2 construct: also called CFHR12
T2 sequence: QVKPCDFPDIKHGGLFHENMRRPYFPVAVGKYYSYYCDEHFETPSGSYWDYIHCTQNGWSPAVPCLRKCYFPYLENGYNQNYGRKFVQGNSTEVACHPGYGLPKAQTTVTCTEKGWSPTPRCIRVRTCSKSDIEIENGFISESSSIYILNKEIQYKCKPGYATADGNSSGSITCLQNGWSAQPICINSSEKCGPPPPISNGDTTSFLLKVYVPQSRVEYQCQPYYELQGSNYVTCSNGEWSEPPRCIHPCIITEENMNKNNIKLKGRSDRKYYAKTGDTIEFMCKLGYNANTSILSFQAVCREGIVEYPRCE

[7] = biological target: B8; assay: SPR; conditions: both partners purified
[8] = biological target: T2, CFHR3_(12), the first two (N-terminal) …; assay: SPR; conditions: both partners purified; remark: listed apart in the source
[9] = biological target: B8; assay: SPR; conditions: both partners purified; remark: listed apart in the source
[10] = biological target: T3, factor H binding protein (fHbp) V1.1 (N. meningitidis, UniProt Q9JXV4 20-274); assay: SPR; conditions: both partners purified
T3 construct: fHbp variant 1.1; source: recombinant, as in Johnson et al., 2012
T3 sequence: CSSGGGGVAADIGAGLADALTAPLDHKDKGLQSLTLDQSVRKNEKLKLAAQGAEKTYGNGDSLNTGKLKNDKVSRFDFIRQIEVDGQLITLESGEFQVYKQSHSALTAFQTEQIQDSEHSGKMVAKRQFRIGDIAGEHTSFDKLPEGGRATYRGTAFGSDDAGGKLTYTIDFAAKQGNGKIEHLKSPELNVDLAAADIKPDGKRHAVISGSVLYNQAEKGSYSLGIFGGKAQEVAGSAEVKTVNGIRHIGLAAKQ

[11] = biological target: factor H binding protein (fHbp) V3.28 (N. meningitidis, UniProt E6MV22 20-274); assay: SPR; conditions: both partners purified

“CFHR3_(12), the first two CCP domains of CFHR3 (domain or fragment)” gave a specificity for CFH over CFHR3 (fold) [1] of 20 fold.

B1: CFHR3_(12), the first two CCP domains of CFHR3 (domain or fragment)
chain: KPCDFPDIKHGGLFHENMRRPYFPVAVGKYYSYYCDEHFETPSGSYWDYIHCTQNGWSPAVPCLRKCYFPYLENGYNQNYGRKFVQGNSTEVACHPGYGLPKAQTTVTCTEKGWSPTPRCIR
For B1, the Kd [2] was 4 nM.

B2: complement factor-H related 3 (CFHR3), full length, recombinant His-tagged, Q02985 19-330 (natural protein)
chain: QVKPCDFPDIKHGGLFHENMRRPYFPVAVGKYYSYYCDEHFETPSGSYWDYIHCTQNGWSPAVPCLRKCYFPYLENGYNQNYGRKFVQGNSTEVACHPGYGLPKAQTTVTCTEKGWSPTPRCIRVRTCSKSDIEIENGFISESSSIYILNKEIQYKCKPGYATADGNSSGSITCLQNGWSAQPICINSSEKCGPPPPISNGDTTSFLLKVYVPQSRVEYQCQPYYELQGSNYVTCSNGEWSEPPRCIHPCIITEENMNKNNIKLKGRSDRKYYAKTGDTIEFMCKLGYNANTSILSFQAVCREGIVEYPRCE
For B2, the Kd [3] was 3 nM.

B3: complement factor-H related 3 (CFHR3), full length, recombinant His-tagged (natural protein)
chain: QVKPCDFPDIKHGGLFHENMRRPYFPVAVGKYYSYYCDEHFETPSGSYWDYIHCTQNGWSPAVPCLRKCYFPYLENGYNQNYGRKFVQGNSTEVACHPGYGLPKAQTTVTCTEKGWSPTPRCIRVRTCSKSDIEIENGFISESSSIYILNKEIQYKCKPGYATADGNSSGSITCLQNGWSAQPICINSSEKCGPPPPISNGDTTSFLLKVYVPQSRVEYQCQPYYELQGSNYVTCSNGEWSEPPRCIHPCIITEENMNKNNIKLKGRSDRKYYAKTGDTIEFMCKLGYNANTSILSFQAVCREGIVEYPRCE
B3 was tested, and the Kd [4] was 9 nM.

B4: CFHR3_(12), the first two (N-terminal) CCP domains of complement factor H-related 3, Q02985 19-330 (domain or fragment)
chain: QVKPCDFPDIKHGGLFHENMRRPYFPVAVGKYYSYYCDEHFETPSGSYWDYIHCTQNGWSPAVPCLRKCYFPYLENGYNQNYGRKFVQGNSTEVACHPGYGLPKAQTTVTCTEKGWSPTPRCIRVRTCSKSDIEIENGFISESSSIYILNKEIQYKCKPGYATADGNSSGSITCLQNGWSAQPICINSSEKCGPPPPISNGDTTSFLLKVYVPQSRVEYQCQPYYELQGSNYVTCSNGEWSEPPRCIHPCIITEENMNKNNIKLKGRSDRKYYAKTGDTIEFMCKLGYNANTSILSFQAVCREGIVEYPRCE
In the case of B4, the Kd [5] is reported as 4.08 nM and 4 nM and 4.25 nM.

B5: fHbp V2.21 Val (at V1 Val272) to Ala (natural protein)
chain: VAADIGAGLADALTAPLDHKDKSLQSLTLDQSVRKNEKLKLAAQGAEKTYGNGDSLNTGKLKNDKVSRFDFIRQIEVDGQLITLESGEFQIYKQDHSAVVALQIEKINNPDKIDSLINQRSFLVSGLGGEHTAFNQLPSGKAEYHGKAFSSDDPNGRLHYSIDFTKKQGYGRIEHLKTPEQNVELASAELKADEKSHAAILGDTRYGSEEKGTYHLALFGDRAQEIAGSATVKIREKVHEIGIAGKQ
Work on B5 yielded a Kd [6] of 63.5 nM.

B6: fHbp V3.28 Val (at V1 Val272) to Ala (natural protein)
chain: VAADIGTGLADALTAPLDHKDKGLKSLTLEDSIPQNGTLTLSAQGAEKTFKAGDKDNSLNTGKLKNDKISRFDFVQKIEVDGQTITLASGEFQIYKQNHSAVVALQIEKINNPDKTDSLINQRSFLVSGLGGEHTAFNQLPGGKAEYHGKAFSSDDPNGRLHYSIDFTKKQGYGRIEHLKTLEQNVELAAAELKADEKSHAAILGDTRYGSEEKGTYHLALFGDRAQEIAGSATVKIGEKVHEIGIAGKQ
B6 was tested, and the Kd [7] was 25.3 nM and the Kd [8] was 42 nM.

B7: fHbp V2.21 Gln (at V1 Lys191) to Ala (natural protein)
chain: MGPDSDRLQQRRVAADIGAGLADALTAPLDHKDKSLQSLTLDQSVRKNEKLKLAAQGAEKTYGNGDSLNTGKLKNDKVSRFDFIRQIEVDGQLITLESGEFQIYKQDHSAVVALQIEKINNPDKIDSLINARSFLVSGLGGEHTAFNQLPSGKAEYHGKAFSSDDPNGRLHYSIDFTKKQGYGRIEHLKTPEQNVELASAELKADEKSHAVILGDTRYGSEEKGTYHLALFGDRAQEIAGSATVKIREKVHEIGIAGKQLEHHHHHH
Molecule B7 has a Kd [9] of 3.02 nM and a Kd [6] of 2.85 nM.

With B8 the Kd [10] was 3.56 nM and the Kd [11] was 2.74 nM and 2.46 nM and 3.17 nM.
